assay: yeast display, Sf9 membrane polyspecificity reagent, FACS + sequencing; frameworks hold sequencing errors
Summary of the method: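 Sorting gates, low and high (top ~1%), were placed on anti-HA fluorescence to track expression and on streptavidin fluorescence to track reagent binding. A clone's polyreactivity label is taken from the gate it came out of. The reagent was 10% biotinylated, detergent-solubilized Sf9 membrane, applied for 1 hour at 4 °C to galactose-induced yeast display cells.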

**Q.** For “QVQLVESGGGLVQAGGSLRLSCAASGFNCATNYMGWYRQAPGKERELVAAITKGGGRTYYADSVKGRFTISRDNAKNTVYLQMNSLKPEDTAVYYCAARQLIKYDYWGQGTQVTVSS”, which “polyreactivity (PSR sort gate)” value is on record?
**A.** The value was “low polyreactivity”.

**Q.** For “QVQLVESGGGLVQAGGSLRLSCAASGFNFAIYAMGWYRQAPGKERELVAAISSSGGSTYYADSVKGRFTISRDNAKNTVYLQMNSLKPEDTAVYYCNADWSLYWLDYWGQGTQVTVSS”, which “polyreactivity (PSR sort gate)” value is on record?
**A.** Its value is “high polyreactivity”.

**Q.** Which “polyreactivity (PSR sort gate)” value does the source give for “QVQLVESGGGLVQAGGSLRLSCAASGFNFASNAMGWYRQAPGKERELVAAITKSGGRTYYADSVKGRFTISRDNAMNTVYLQMNSLKPEDTAVYYCAAKVRVVHRPYDHWGQGTQVTVSS” here?
**A.** Its value is “high polyreactivity”.

**Q.** Which “polyreactivity (PSR sort gate)” value does the source give for “QVQLVESGGGLVQAGGSLRLSCAASGFNFDGYAMGWYRQAPGKERELVAAITYSGGSTYYADSVKGRFTISRDNAKNTVYLQMNSLKPEDTAVYYCAAESYVYGGSDYDYWGQGTQVTVSS” here?
**A.** The value was “low polyreactivity”.

**Q.** Which “polyreactivity (PSR sort gate)” value does the source give for “QVQLVESGGGLVQAGGSLRLSCAASGFNFDWYAMGWYRQAPGKERELVAAISASGGRTYYADSVKGRFTISRDNAKNTVYLQMNSLKPEDTAVYYCNKYYLVKGPYDWGQGTQVTVSS” here?
**A.** Its value is “high polyreactivity”.

**Q.** Which “polyreactivity (PSR sort gate)” value does the source give for “QVQLVESGGGLVQAGGSLRLSCAASGFNFGGYPMGWYRQAPGKERELVADISKRGGSTFYADSVKGRFTISRDNAKNTVYLQMNSLKPEDTAVYYCATRFFYPYWGVYEYYYWGQGTQVTVSS” here?
**A.** The value was “high polyreactivity”.

**Q.** With “QVQLVESGGGLVQAGGSLRLSCAASGFNFKHYAMGWYRQAPGKERELVATITRGGSTNYADSVKGRFTISRDNAKNTVYLQMNSLKPEDTAVYYCAASDYVRYPFTRGYIYQGSDYWGQGTQVTVSS” as the sequence, how does the “polyreactivity (PSR sort gate)” value read?
**A.** Its value is “low polyreactivity”.

**Q.** With “QVQLVESGGGLVQAGGSLRLSCAASGFNFNNNGMGWYRQAPGKERELDAAISYSGGRTYYADSVKGRFTISRDNAKNTLYLQMNSLKPEETAVYYFADNSYYSRYDYWGQGTQVTVSS” as the sequence, how does the “polyreactivity (PSR sort gate)” value read?
**A.** The value was “low polyreactivity”.

**Q.** For “QVQLVESGGGLVQAGGSLRLSCAASGFNFPGNAIGWYTPAPGKERELVATISSGGSTKYADSVKGRFTISRDNAKNTVYLQMNSLKPEDTAVYYFAARVYLGVFDYYYWGQGTQVTVSS”, which “polyreactivity (PSR sort gate)” value is on record?
**A.** The value was “low polyreactivity”.

**Q.** For “QVQLVESGGGLVQAGGSLRLSCAASGFNFPHYAMGWYIQAPGKERELVAAISWSGTRTYYADSVKGRFTISRDNAKNTVYLQMNSLKPEDTAVYYCNADSITEGNSRYSHFDYWGQGTQVTVSS”, which “polyreactivity (PSR sort gate)” value is on record?
**A.** The value was “low polyreactivity”.

**Q.** For “QVQLVESGGGLVQAGGSLRLSCAASGFNFRWYAMGWYRQAPGKESEFVAAITWRGGRTYYADSVKGRFTISRDNAKNTVYLQMNSLKPEDTAVYYCNAVYQYWHYSEGNYWGQGTQVTVSS”, which “polyreactivity (PSR sort gate)” value is on record?
**A.** Its value is “low polyreactivity”.

**Q.** Which “polyreactivity (PSR sort gate)” value does the source give for “QVQLVESGGGLVQAGGSLRLSCAASGFNFRYNAMGWYRQAPGKERELVAGISGGGTHYADSVKGRFTISRDNAKNTVYLQMNSLKPEDTAVYYCARRGGYRRNTNFYYWGQGTQVTVSS” here?
**A.** Its value is “high polyreactivity”.

**Q.** For “QVQLVESGGGLVQAGGSLRLSCAASGFNFSHNAMGWYRQAPGKERELVAAISGSGGRTYYADSVKGRFTISRDNAKNTVDLQMNSLKPEDTAVYYCNAGRWWRRGYGYWGQVTQVTVSS”, which “polyreactivity (PSR sort gate)” value is on record?
**A.** Its value is “high polyreactivity”.

**Q.** For “QVQLVESGGGLVQAGGSLRLSCAASGFNFTRYAMGWYRQAPGKERELVAAISSGSRTYYADSVKGRFTISRDNAKNTVYLQMISLKPEDTAVYYCAAPVYTYYGHYDSWGQGTQVTVSS”, which “polyreactivity (PSR sort gate)” value is on record?
**A.** The value was “high polyreactivity”.

**Q.** With “QVQLVESGGGLVQAGGSLRLSCAASGFNFYFYTMGWYRQAPGKERELVAGITWSGDSTYYADSVKGRFTISRDNAKNTVYLQMNSLKPEDTAVYYCAAGFDFGTRVSKGYDYWGQGTQVTVSS” as the sequence, how does the “polyreactivity (PSR sort gate)” value read?
**A.** The value was “low polyreactivity”.

**Q.** For “QVQLVESGGGLVQAGGSLRLSCAASGFNFYGYAMGWYRQAPGKERQLVATISRGGSTTYYADSVKGRFTISRDNAKNTVYLQMNSLKPEDTAVYYCAAYNVIYTRRMYYWGQGTQVTVSS”, which “polyreactivity (PSR sort gate)” value is on record?
**A.** Its value is “high polyreactivity”.

**Q.** With “QVQLVESGGGLVQAGGSLRLSCAASGFNFYRYAMGWYRQAPGKERELVAVITGRGGTTYYSDSVKGRFTISRDNAKNTVYLQMNSLKTEDTAVYYCAAPQQQSWTYDGRYGYWGQGTKVTVSS” as the sequence, how does the “polyreactivity (PSR sort gate)” value read?
**A.** Its value is “high polyreactivity”.

**Q.** With “QVQLVESGGGLVQAGGSLRLSCAASGFPFVYYVMGWYRPAPGKERELVAAINAGGGYTYYADSVKGRFTISRDNAKNTVYVQMNSLKPEDTAVYYCNARVRVRLGRNWSSYYYWGQGTQVTVSS” as the sequence, how does the “polyreactivity (PSR sort gate)” value read?
**A.** Its value is “high polyreactivity”.

**Q.** With “QVQLVESGGGLVQAGGSLRLSCAASGFSFDFYTMGWYRQAPGKERELVAAITWSGDSTYYADSVKGRFTISRDNAKNTVDLQMNSLKPEDTAVYYCAVARVSQDGYRRRVTTWHDDYWGQGTQVTVSS” as the sequence, how does the “polyreactivity (PSR sort gate)” value read?
**A.** Its value is “low polyreactivity”.

**Q.** Which “polyreactivity (PSR sort gate)” value does the source give for “QVQLVESGGGLVQAGGSLRLSCAASGFSFDTYAMGWYRQAPGKERELVAVISRGGSTYYADSVKGRFTISRDNAKNTVYLQMNSLKPEDTAVYYCAARSHGSYAYQYGYWGQGTQVTVSS” here?
**A.** The value was “high polyreactivity”.

**Q.** Which “polyreactivity (PSR sort gate)” value does the source give for “QVQLVESGGGLVQAGGSLRLSCAASGFSFGVYAMGWSRQAPGKERELVAAISTTVGSTYYADSVKGRFTISRDNAKNTVYLQMNSLKPEDTAVYYCAAEYTGYINYYIYEYWGQGTQVTVSS” here?
**A.** The value was “low polyreactivity”.

**Q.** For “QVQLVESGGGLVQAGGSLRLSCAASGFSFIDNALGWYPQAPGKERELVAAITWSGGSTYYADSVKGRFTISRDNAKNTVYLQMNSLKPEDTAVYYCAATLWFGVAGDSRYDPPEYDYWGQGTQVTVSS”, which “polyreactivity (PSR sort gate)” value is on record?
**A.** Its value is “low polyreactivity”.

Reference: the nanobody polyreactivity screen of Harvey et al. (2022)
